# Laboratory results from publication PMC2675579, “Structure of N-acetylglucosamine-1-phosphate uridyltransferase (GlmU) from Mycobacterium tuberculosis in a cubic space group” (Acta Crystallographica Section F: Structural Biology and …, 2009).
# Target: the molecule itself
# Test: SEC; 26/60 Superdex200 High Load gel-filtration column, 20 mM HEPES pH 7.5, 150 mM NaCl, 1 mM DTT
protein,measurement,value
"N-acetylglucosamine-1-phosphate uridyltransferase (GlmU) from Mycobacterium tuberculosis (enzyme, GlmU, Mycobacterium tuberculosis, gene Rv1018c (glmU); model built for residues 1-472; also called Rv1018c gene product; M. tuberculosis GlmU) MTFPGDTAVLVLAAGPGTRMRSDTPKVLHTLAGRSMLSHVLHAIAKLAPQRLIVVLGHDHQRIAPLVGELADTLGRTIDVALQDRPLGTGHAVLCGLSALPDDYAGNVVVTSGDTPLLDADTLADLIATHRAVSAAVTVLTTTLDDPFGYGRILRTQDHEVMAIVEQTDATPSQREIREVNAGVYAFDIAALRSALSRLSSNNAQQELYLTDVIAILRSDGQTVHASHVDDSALVAGVNNRVQLAELASELNRRVVAAHQLAGVTVVDPATTWIDVDVTIGRDTVIHPGTQLLGRTQIGGRCVVGPDTTLTDVAVGDGASVVRTHGSSSSIGDGAAVGPFTYLRPGTALGADGKLGAFVEVKNSTIGTGTKVPHLTYVGDADIGEYSNIGASSVFVNYDGTSKRRTTVGSHVRTGSDTMFVAPVTIGDGAYTGAGTVVREDVPPGALAVSAGPQRNIENWVQRKRPGSPAAQASKRASEMACQQPTQPPDADQTP",stoichiometry N,3
